B1: ATGL (PNPLA2, patatin-like phospholipase domain-containing protein 2), human, full length / CGI-58 (ABHD5, 1-acylglycerol-3-phosphate O-acyltransferase ABHD5), human (parent)
chain 1: MFPREKTWNISFAGCGFLGVYYVGVASCLREHAPFLVANATHIYGASAGALTATALVTGVCLGEAGAKFIEVSKEARKRFLGPLHPSFNLVKIIRSFLLKVLPADSHEHASGRLGISLTRVSDGENVIISHFNSKDELIQANVCSGFIPVYCGLIPPSLQGVRYVDGGISDNLPLYELKNTITVSPFSGESDICPQDSSTNIHELRVTNTSIQFNLRNLYRLSKALFPPEPLVLREMCKQGYRDGLRFLQRNGLLNRPNPLLALPPARPHGPEDKDQAVESAQAEDYSQLPGEDHILEHLPARLNEALLEACVEPTDLLTTLSNMLPVRLATAMMVPYTLPLESALSFTIRLLEWLPDVPEDIRWMKEQTGSICQYLVMRAKRKLGRHLPSRLPEQVELRRVQSLPSVPLSCAAYREALPGWMRNNLSLGDALAKWEECQRQLLLGLFCTNVAFPPEALRMRAPADPAPAPADPASPQHQLAGPAPLLSTPAPEARPVIGALGL
chain 2: MAAEEEEVDSADTGERSGWLTGWLPTWCPTSISHLKEAEEKMLKCVPCTYKKEPVRISNGNKIWTLKFSHNISNKTPLVLLHGFGGGLGLWALNFGDLCTNRPVYAFDLLGFGRSSRPRFDSDAEEVENQFVESIEEWRCALGLDKMILLGHNLGGFLAAAYSLKYPSRVNHLILVEPWGFPERPDLADQDRPIPVWIRALGAALTPFNPLAGLRIAGPFGLSLVQRLRPDFKRKYSSMFEDDTVTEYIYHCNVQTPSGETAFKNMTIPYGWAKRPMLQRIGKMHPDIPVSVIFGARSCIDGNSGTSIQSLRPHSYVKTIAILGAGHYVYADQPEEFNQKVKEICDTVD

Variants of: B1
Experiment: LUMIER: Protein A-ATGL variant and firefly luciferase-partner co-expressed in HEK293T, lysates immunoprecipitated on IgG-coated plates, co-precipitated partner measured as luciferase luminescence
Settings: with CGI-58 (ABHD5, 1-acylglycerol-3-phosphate O-acyltransferase ABHD5), transient co-transfection, IgG-coated LUMITRAC plates, 2 h at 4 °C, three PBS washes, Bright-Glo luciferase reagent, triplicates per assay, two …, scale: log2 fold change of co-immunoprecipitated luminescence relative to wild-type ATGL within each experiment

| Variant | screen value (parent: 0.32, not graded) | screen value (parent: 0.45, not graded) |
| --- | --- | --- |
| chain 1 MFPREKTWNISFAGCGFLGVYYVGVASCLREHAPFLVANATHIYGASAGALTATALVTGVCLGEAGAKFIEVSKEARKRFLGPLHPSFNLVLIIRSFLLKVLPADSHEHASGRLGISLTRVSDGENVIISHFNSKDELIQANVCSGFIPVYCGLIPPSLQGVRYVDGGISDNLPLYELKNTITVSPFSGESDICPQDSSTNIHELRVTNTSIQFNLRNLYRLSKALFPPEPLVLREMCKQGYRDGLRFLQRNGLLNRPNPLLALPPARPHGPEDKDQAVESAQAEDYSQLPGEDHILEHLPARLNEALLEACVEPTDLLTTLSNMLPVRLATAMMVPYTLPLESALSFTIRLLEWLPDVPEDIRWMKEQTGSICQYLVMRAKRKLGRHLPSRLPEQVELRRVQSLPSVPLSCAAYREALPGWMRNNLSLGDALAKWEECQRQLLLGLFCTNVAFPPEALRMRAPADPAPAPADPASPQHQLAGPAPLLSTPAPEARPVIGALGL [chain 1 K92L] | -0.67 | -0.328 |
| chain 1 MFPREKTWNISFAGCGFLGVYYVGVASCLREHAPFLVANATHIYGASAGALTATALVTGVCLGEAGAKFIEVSKEARKRFLGPLHPSFNLVKIIRSFLLKVLPADSHEHASGRLGISLTRVSDGENVIISHFNSKDELIQANVCSGFIPVYCKLIPPSLQGVRYVDGGISDNLPLYELKNTITVSPFSGESDICPQDSSTNIHELRVTNTSIQFNLRNLYRLSKALFPPEPLVLREMCKQGYRDGLRFLQRNGLLNRPNPLLALPPARPHGPEDKDQAVESAQAEDYSQLPGEDHILEHLPARLNEALLEACVEPTDLLTTLSNMLPVRLATAMMVPYTLPLESALSFTIRLLEWLPDVPEDIRWMKEQTGSICQYLVMRAKRKLGRHLPSRLPEQVELRRVQSLPSVPLSCAAYREALPGWMRNNLSLGDALAKWEECQRQLLLGLFCTNVAFPPEALRMRAPADPAPAPADPASPQHQLAGPAPLLSTPAPEARPVIGALGL [chain 1 G153K] | -0.536 | -0.602 |
| chain 1 MFPREKTWNISFAGCGFLGVYYVGVASCLREHAPFLVANATHIYGASAGALTATALVTGVCLGEAGAKFIEVSKEARKRFLGPLHPSFNLVKIIRSFLLKVLPADSHEHASGRLGISLTRVSDGENVIISHFNSKDELIQANVCSGFIPVYCGLIPPSLQGVRYVDGGISDNLPLYELKNTITVSPFSGESDICPQDSSTNIHELRVTNTSIQFNLRNLYRLSKALFPPEPLVLREMCKQGYRDGLRFLQRNGLLNRPNPLLALPPARPHGPEDKDQAVESAQAEDYSQLPGEDHILEHLPARLNEALLEACVEPTDLLTTLSNMLPVRLATAMMVPYTLPLESALSFTIRLLEWLPDVPEDIRWMKEQTGSICQYLVMRAKRKLGRHLPSRLPEQVELRRVQSLPSVPLSCAAYREALPGWMRNNLSLGDALLKWEECQRQLLLGLFCTNVAFPPEALRMRAPADPAPAPADPASPQHQLAGPAPLLSTPAPEARPVIGALGL [chain 1 A434L] | 0.0792 | 0.226 |
| chain 1 MFPREKTWNISFAGCGFLGVYYVGVASCLREHAPELVANATHIYGASAGALTATALVTGVCLGEAGAKFIEVSKEARKRFLGPLHPSFNLVKIIRSFLLKVLPADSHEHASGRLGISLTRVSDGENVIISHFNSKDELIQANVCSGFIPVYCGLIPPSLQGVRYVDGGISDNLPLYELKNTITVSPFSGESDICPQDSSTNIHELRVTNTSIQFNLRNLYRLSKALFPPEPLVLREMCKQGYRDGLRFLQRNGLLNRPNPLLALPPARPHGPEDKDQAVESAQAEDYSQLPGEDHILEHLPARLNEALLEACVEPTDLLTTLSNMLPVRLATAMMVPYTLPLESALSFTIRLLEWLPDVPEDIRWMKEQTGSICQYLVMRAKRKLGRHLPSRLPEQVELRRVQSLPSVPLSCAAYREALPGWMRNNLSLGDALAKWEECQRQLLLGLFCTNVAFPPEALRMRAPADPAPAPADPASPQHQLAGPAPLLSTPAPEARPVIGALGL [chain 1 F35E] | 0.146 | 0.336 |
| chain 1 MFPREKTWNISFAGCGFLGVYYVGVASCLREHAPFLVANATHIYGASAGALTATALVTGVCLGEAGAKFIEVSKEARKRFLGPLHPSFNLVKIIRSFLLKVLPADSHEHASGRLGISLTRVSDGENVIISHFNSKDELIQANVCSGFIPVYCGLIPPSLQGVRYVDGGISDNLPLYELKNTITVSPFSGESDICPQDSSTNIHELRVTNTSIQFNLRNLYRLSKALFPPEPLVLREMCKQGYRDGLRFLQRNGLLNRLNPLLALPPARPHGPEDKDQAVESAQAEDYSQLPGEDHILEHLPARLNEALLEACVEPTDLLTTLSNMLPVRLATAMMVPYTLPLESALSFTIRLLEWLPDVPEDIRWMKEQTGSICQYLVMRAKRKLGRHLPSRLPEQVELRRVQSLPSVPLSCAAYREALPGWMRNNLSLGDALAKWEECQRQLLLGLFCTNVAFPPEALRMRAPADPAPAPADPASPQHQLAGPAPLLSTPAPEARPVIGALGL [chain 1 P258L] | -1.23 | -1.16 |
| chain 1 MFPREKTWNISFAGCGFLGVYYVGVASCLREHAPFLVANATHIYGASAGALTATALVTGVCLGEAGAKFIEVSKEARKRFLGPLHKSFNLVKIIRSFLLKVLPADSHEHASGRLGISLTRVSDGENVIISHFNSKDELIQANVCSGFIPVYCGLIPPSLQGVRYVDGGISDNLPLYELKNTITVSPFSGESDICPQDSSTNIHELRVTNTSIQFNLRNLYRLSKALFPPEPLVLREMCKQGYRDGLRFLQRNGLLNRPNPLLALPPARPHGPEDKDQAVESAQAEDYSQLPGEDHILEHLPARLNEALLEACVEPTDLLTTLSNMLPVRLATAMMVPYTLPLESALSFTIRLLEWLPDVPEDIRWMKEQTGSICQYLVMRAKRKLGRHLPSRLPEQVELRRVQSLPSVPLSCAAYREALPGWMRNNLSLGDALAKWEECQRQLLLGLFCTNVAFPPEALRMRAPADPAPAPADPASPQHQLAGPAPLLSTPAPEARPVIGALGL [chain 1 P86K] | -0.174 | -0.669 |

Source: article PMC10958042
